Laboratory results reported in patent US20030166162.

Key:
[1] = tested on: GST-Chymosin pro-peptide-Hirudin fusion protein
[2] = tested on: poly histidine tagged chymosin pro-peptide carp growth hormone fusion protein

Substance	cleavage of the fusion protein at pH 2.0, Western blotting (results not shown) [1]	cleavage of the fusion protein at pH 4.5, Western blotting (results not shown) [1]	cleavage of the fusion protein at pH 2, SDS-PAGE and Western blot [2]	cleavage of the fusion protein, SDS-PAGE and Western blot [2]
chymosin (Sigma)	complete cleavage was also observed when the GST-Pro-Hirudin fusion which was treated at pH 2.0 and supplemented with 2 ug chymosin	apart from treatment at pH 4.5, complete cleavage was also observed	the cleavage with chymosin yielded a protein band corresponding to the expected theoretical molecular mass of the cGH (approximately 22 kDa) polypeptide	–
enterokinase	–	–	–	cleavage of the fusion protein was observed with enterokinase yielding a protein band corresponding to the calculated molecular mass of the Pro-cGH fusion (26 kDa)
